Assay results: patent publication US20190315842A1 (DUKE UNIVERSITY, published 2019)
“And” between values parts separate entries of the source, which are not always exact repeats. Identical values can stand only once. Each block holds one binder with its values, some of them ahead of it.

How the values were obtained:
[1] = target: T1, Complement Factor H (CFH) protein, full-length (human, UniProt P08603 19-1231); test: immunoblot, SDS-PAGE under non-reducing conditions, antibody at 0.5 µg/ml, anti-human IgG-HRP, chemiluminescence; lane numbers as in Table 10
T1 construct: also called full-length CFH; native CFH

[2] = target: T2, reduced form of Complement Factor H (CFH), treated with TCEP (human, UniProt P08603 19-1231, disulfides reduced with 10 mM TCEP); test: immunoblot, SDS-PAGE under reducing conditions, antibody at 0.5 µg/ml, anti-human IgG-HRP, chemiluminescence; lane numbers as in Table 10
T2 construct: also called reduced CFH; reduced form of CFH

centromere B (CentB) [3] = target: T3, centromere B (CentB) (UniProt P07199 2-599); test: AtheNA Multi-Lyte ANA, Ab at 12.5 ug/ml;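 further: monoclonal antibodies screened for binding to a panel of nuclear autoantigens (SSA, SSB, Sm, RNP, Scl-70, Jo-1, dsDNA, CentB, histones), with anti-HIV and anti-RSV antibodies as controls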
T3 sequence (looked up): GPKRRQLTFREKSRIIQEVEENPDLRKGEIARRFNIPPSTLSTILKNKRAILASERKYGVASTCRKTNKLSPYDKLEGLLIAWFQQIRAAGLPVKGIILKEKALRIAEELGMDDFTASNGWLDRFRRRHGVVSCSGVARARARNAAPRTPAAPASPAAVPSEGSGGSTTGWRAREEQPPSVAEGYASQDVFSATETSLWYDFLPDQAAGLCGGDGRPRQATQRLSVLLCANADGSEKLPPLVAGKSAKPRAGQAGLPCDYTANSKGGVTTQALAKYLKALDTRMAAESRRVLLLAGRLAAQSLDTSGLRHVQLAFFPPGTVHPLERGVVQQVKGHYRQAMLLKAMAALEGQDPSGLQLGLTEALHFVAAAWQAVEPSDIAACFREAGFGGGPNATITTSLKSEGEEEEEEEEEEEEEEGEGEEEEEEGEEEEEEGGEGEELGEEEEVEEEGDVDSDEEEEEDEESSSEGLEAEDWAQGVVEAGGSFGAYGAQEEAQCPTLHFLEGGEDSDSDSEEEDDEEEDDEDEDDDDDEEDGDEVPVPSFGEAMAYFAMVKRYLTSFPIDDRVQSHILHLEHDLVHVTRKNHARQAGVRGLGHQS

centromere B (CentB) [4] = target: T3, centromere B (CentB); test: AtheNA Multi-Lyte ANA, Ab at 25 ug/ml
[5] = target: T1, Complement Factor H (CFH) protein, …; test: immunoblot, SDS-PAGE under non-reducing conditions, anti-human IgG-HRP, chemiluminescence; lane numbers as in Table 10
[6] = target: T2, reduced form of Complement Factor H …; test: immunoblot, SDS-PAGE under reducing conditions, anti-human IgG-HRP, chemiluminescence; lane numbers as in Table 10
[7] = target: T4, reduced SCR19-20 (human CFH short consensus repeat domains 19 and 20, reduced) (human, UniProt P08603 1107-1231, disulfides reduced with TCEP or reducing SDS-PAGE); test: as above
T4 construct: domain: SCR19-20; Same construct as m3, reduced
T4 sequence (looked up): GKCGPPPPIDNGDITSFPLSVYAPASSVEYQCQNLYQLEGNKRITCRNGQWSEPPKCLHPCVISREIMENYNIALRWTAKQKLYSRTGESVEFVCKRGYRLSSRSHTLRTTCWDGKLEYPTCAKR

[8] = target: T5, 15-mer peptide GPPPPIDNGDITSFP (SEQ ID NO: 114) (human); test: SPR (BIAcore), mAb at 25, 50 or 100 nM over immobilized 15-mer peptide
T5 construct: Immobilized for SPR; also called parent peptide
T5 peptide: GPPPPIDNGDITSFP

[9] = target: T6, systemic lupus erythematosus autoantigen SSB (UniProt P05455 1-408, limits assumed); test: AtheNA Multi-Lyte ANA, Ab at 25 ug/ml
T6 sequence (looked up): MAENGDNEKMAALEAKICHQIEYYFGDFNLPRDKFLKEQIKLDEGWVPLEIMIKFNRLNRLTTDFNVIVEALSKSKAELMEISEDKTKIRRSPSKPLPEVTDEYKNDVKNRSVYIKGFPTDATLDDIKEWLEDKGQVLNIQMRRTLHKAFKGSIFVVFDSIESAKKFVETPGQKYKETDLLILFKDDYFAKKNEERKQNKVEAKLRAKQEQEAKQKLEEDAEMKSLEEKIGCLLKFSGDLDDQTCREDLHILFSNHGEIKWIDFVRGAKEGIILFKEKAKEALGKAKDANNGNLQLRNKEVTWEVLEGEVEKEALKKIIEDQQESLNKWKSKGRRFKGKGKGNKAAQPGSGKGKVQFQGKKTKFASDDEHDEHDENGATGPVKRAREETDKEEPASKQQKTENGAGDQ

- binding result [1]: binds
- binding result [2]: binds
- AtheNA signal (centromere B (CentB) [3]): 2
- AtheNA signal (centromere B (CentB) [4]): 2
B1: Ab7957/293i (antibody, IgG1, V domains shown)
VH: LVESGGGVVPPGKSLRLSCAASGFTFSLYGIHWVRQAPGKGLEWVAVISYDGNTKYYTDSVKGRFTISRDNAKNTIYLQMNSLRLDDTAVYYCAKGAANSATFDFWGRGTMVTVSS
VL: MTQSPDSLTLSLGERATINCRSSRTVLYRSNNKNYLAWYQHKPGQPPKLLMSWASTRETGVPDRFSGSGSGTHFTLTITSLQPEDVAVYYCQQYYSPPWTFGQGTKVEIR
notes: Recombinant human antibody with IgG1 heavy chain backbone and kappa light chain constant; they begin at LVESGGG and MTQSP; also called Ab7957i; mAb 7957

- binding result [5]: no binding (tested: 0.5 µg/ml)
- AtheNA signal (centromere B (CentB) [3]): 2
- binding result [6]: no binding (tested: 0.5 µg/ml)
- binding result [7]: no binding (tested: 0.5 µg/ml)
B2: Ab7962/293i (antibody, V domains shown)
VH: LVESGGGLVQPGGSLRLSCAASGFTFSSYEMNWVRQAPGKGLEWVSYISSSGSTIYYADSVKGRFTISRDNAKNSLYLQMNSLRAEDTAVYYCARVEQLAPSPYMDVWGKGTTVTVSS
VL: MTQSLDSLTVSLGERATINCKSSQSLLYTSNNKNYLAWYQQKSGQPPKLLIYWASIRDSGVPDRFSGSGSATDFTLTINNLQAEDVAVYFCQQYYKTPLTFGGGTKVEVR
notes: Recombinant human antibody with IgG1 heavy chain backbone and kappa light chain constant (IgM in the donor B cell); they begin at LVESGGG and MTQSL; also called clone 27; pH007962/pK005996

- Kd [8]: ~2.5 pM and 2.46 pM
- koff [8]: 5.56e-07 s⁻¹
- kon [8]: 226000 M⁻¹ s⁻¹
- AtheNA signal [9]: 8
B3: Ab7968 (antibody, IgG1, V domains shown)
VH: LVESGGGVVQPGRSLRLSCAASGFTFSRYGMHWVRQAPGKGLEWVAVMSYDGSTKYYADSVKGRFAISRDNPKNTLFLQMNSLRPDDTAVYYCAKGGAAAAVMDVWGKGTTVTVSS
VL: MTQSPDSLTVSLGERATISCKSSQRLLYSSNNKNYLAWYQQKPGQPPKLLMYWASTRESGVPDRFSGSGSGTDFSLTISSLQAEDVAVYYCQQYYNPPWTFGQGTKVEVK
notes: Recombinant human antibody with IgG1 heavy chain backbone and kappa light chain constant; they begin at LVESGGG and MTQSP; also called mAb 7968; mAb7968
